Changes are numbered by the printed parent chain.
T1: SLC20A1 (PIT1) receptor (UniProt Q8WUM9 1-679, limits assumed)
T1 construct: whole, on cells; Endogenous on K562 cells (a human cell line)
T1 sequence (looked up): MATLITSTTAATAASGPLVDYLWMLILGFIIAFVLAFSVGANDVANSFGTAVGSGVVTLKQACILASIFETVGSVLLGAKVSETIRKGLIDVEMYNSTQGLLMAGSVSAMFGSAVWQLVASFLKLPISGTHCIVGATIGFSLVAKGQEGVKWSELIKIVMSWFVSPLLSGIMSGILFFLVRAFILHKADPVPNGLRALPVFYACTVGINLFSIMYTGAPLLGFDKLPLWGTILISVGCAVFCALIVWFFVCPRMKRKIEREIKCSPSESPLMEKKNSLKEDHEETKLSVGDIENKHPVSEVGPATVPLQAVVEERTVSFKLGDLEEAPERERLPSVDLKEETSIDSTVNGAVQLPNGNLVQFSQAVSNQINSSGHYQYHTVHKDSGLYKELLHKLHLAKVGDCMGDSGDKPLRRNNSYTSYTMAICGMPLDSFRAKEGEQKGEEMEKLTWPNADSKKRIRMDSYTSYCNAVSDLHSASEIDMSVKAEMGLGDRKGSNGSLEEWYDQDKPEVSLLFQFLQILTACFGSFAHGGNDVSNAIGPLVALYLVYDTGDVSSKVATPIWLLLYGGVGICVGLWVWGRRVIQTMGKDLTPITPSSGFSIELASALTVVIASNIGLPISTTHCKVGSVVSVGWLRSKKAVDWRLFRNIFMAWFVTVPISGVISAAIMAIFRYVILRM

B1: huIgG1 monoFc tagged GALV gp70 protein (residues 505-616) (Fc fusion)
chain: not shown
notes: Residues are numbered according to Uniprot P21415; also called gp70 (505-616); coiled-coil (CC) domain of GALV gp70
B2: 9G11 (antibody, V domains shown)
VH: QVQLQQPGAELVRPGSSVKLSCKASGYTFTNYWMDWVKQRPGQGLEWIGHIYPSDSETHYIQKFKDKATLTVDKSSNTAYMQLSSLTSEDSAVYYCARDYYWGQGTTLTVSS
VL: QAVVTQESALTTSPGETVTLTCRSSTGAVTTSNYANWVQEKPDHLFTGLIGGTNNRAPGVPARFSGSLIGDKAALTITGAQTEDEAIYFCALWYSSQLVFGGGTKLTVLQ
notes: Anti-GALV gp70; One id for the hybridoma supernatant and the recombinant murine IgG2a antibody; also called 9G11-HC / 9G11-LC
B3: 4F1 (antibody, V domains shown)
VH: B2 VH with N31S, V37M, I61N, K67R, N77S, T78A, Y80F
VL: B2 VL with S96N, Q97H
notes: Anti-GALV gp70; One id for the hybridoma supernatant and the recombinant murine IgG2a antibody; also called 4F1-HC / 4F1-LC1
B4: 40A3 (antibody, V domains shown)
VH: DVQLQESGPDLVKPSQSLSLTCTVTDFSITSDYTWHWVRQFPGNKLEWMAYIHYSGGTNYNPSLRSRISITRDTSKNQFFLHMNSVTTEDTATYYCLYYGSRDAVDYWGQGTSVTVSS
VL: QIVLTQSPAIMSASPGEKVTMTCSTSSSVTYMHWYQQKSGTSPKRWIYDTSKLASGVPARFSGSGSGTSYSLTISSMEAEDAATYYCQQWSSSPYTFGGGTKLEIK
notes: Anti-GALV gp70; One id for the hybridoma supernatant and the recombinant murine IgG2a antibody; also called 40A3-HC / 36H3-LC
B5: 8G8 (antibody, V domains shown)
VH: B2 VH with H50N, I61N, K63N, N77S
VL: B2 VL with T31R, P58L, S96N, Q97H
notes: Anti-GALV gp70; One id for the hybridoma supernatant and the recombinant murine IgG2a antibody; also called 8G8-HC2 / 8G8-LC2
B6: 2D3 (antibody, V domains shown)
VH: B2 VH with H50N, I61N, K65R, S75P, N77S
VL: B2 VL with P58L, T82I, S96N, Q97H
notes: Anti-GALV gp70; One id for the hybridoma supernatant and the recombinant murine IgG2a antibody; also called 2D3-HC1 / 2D3-LC1
B7: 9A1 (antibody, V domains shown)
VH: B2 VH with K19R, N31S, H50N, I61N, N77S
VL: B2 VL with T31R, S96N, Q97H
notes: Anti-GALV gp70; One id for the hybridoma supernatant and the recombinant murine IgG2a antibody; also called 9A1-HC3 / 9A1-LC1
B8: 40A6 (antibody, V domains shown)
VH: EVQLVESGGGLVKPGGSLKLSCAASGFTFSSYVLSWVRQIPEKRLEWVATINSGGSYTYYPDSVKGRFTISRDNAKNTLYLQMSSLRSEDTAIYYCARHLIYYDYDGYYFDTWGQGTSLTVSS
VL: DVVMTQTPLSLPVSLGDQASISCRSSQTLVHSNGNIYLHWYLQKPGQSPKLLIYKVSNRFSGVPDRFSGSGSGTDFTLKISRVETEDLGIYFCSQTTHVPPTFGGGTKLEIK
notes: Anti-GALV gp70; One id for the hybridoma supernatant and the recombinant murine IgG2a antibody; also called 40A6-HC / 40A6-LC
B9: 35C11 (antibody, V domains shown)
VH: QVQLQQSGPELVRPGVSVKISCKVSGYTFTDYTMHWVKQSHAKSLEWIGLISTYSGKTNYNQKLKDKATMTVDKSSSTAYMELARLTSEDSAIFYCARGGLRDAMDYWGQGTSVTVSS
VL: DIVLTQSPASLAVSLGQGATISCRASESVDSYGNSFMHWYQQKPGQPPKLLIYRASNLESGIPARFSGSGSGTDFTLTINPVEADDVATYYCLQSNEDPRTFGGGTKLEIK
notes: also called 35C11-HC / 35C11-LC
B10: huIgG1 monoFc tagged GALV gp70 protein (residues 42-616) (Fc fusion)
chain: TSLQNKNPHQPMTLTWQVLSQTGDVVWDTKAVQPPWTWWPTLKPDVCALAASLESWDIPGTDVSSSKRVRPPDSDYTAAYKQITWGAIGCSYPRARTRMASSTFYVCPRDGRTLSEARRCGGLESLYCKEWDCETTGTGYWLSKSSKDLITVKWDQNSEWTQKFQQCHQTGWCNPLKIDFTDKGKLSKDWITGKTWGLRFYVSGHPGVQFTIRLKITNMPAVAVGPDLVLVEQGPPRTSLALPPPLPPREAPPPSLPDSNSTALATSAQTPTVRKTIVTLNTPPPTTGDRLFDLVQGAFLTLNATNPGATESCWLCLAMGPPYYEAIASSGEVAYSTDLDRCRWGTQGKLTLTEVSGHGLCIGKVPFTHQHLCNQTLSINSSGDHQYLLPSNHSWWACSTGLTPCLSTSVFNQTRDFCIQVQLIPRIYYYPEEVLLQAYDNSHPRTKREAVSLTLAVLLGLGITAGIGTGSTALIKGPIDLQQGLTSLQIAIDADLRALQDSVSKLEDSLTSLSEVVLQNRRGLDLLFLKEGGLCAALKEECCFYIDHSGAVRDSMKKLKEKLDKRQLERQKSQN
notes: Residues are numbered according to Uniprot P21415; also called gp70 (42-616); RBD+CC domains
B11: huIgG1 monoFc tagged GALV gp70 protein (residues 42-474) (Fc fusion)
chain: TSLQNKNPHQPMTLTWQVLSQTGDVVWDTKAVQPPWTWWPTLKPDVCALAASLESWDIPGTDVSSSKRVRPPDSDYTAAYKQITWGAIGCSYPRARTRMASSTFYVCPRDGRTLSEARRCGGLESLYCKEWDCETTGTGYWLSKSSKDLITVKWDQNSEWTQKFQQCHQTGWCNPLKIDFTDKGKLSKDWITGKTWGLRFYVSGHPGVQFTIRLKITNMPAVAVGPDLVLVEQGPPRTSLALPPPLPPREAPPPSLPDSNSTALATSAQTPTVRKTIVTLNTPPPTTGDRLFDLVQGAFLTLNATNPGATESCWLCLAMGPPYYEAIASSGEVAYSTDLDRCRWGTQGKLTLTEVSGHGLCIGKVPFTHQHLCNQTLSINSSGDHQYLLPSNHSWWACSTGLTPCLSTSVFNQTRDFCIQVQLIPRIYYYPEE
notes: also called gp70 (42-474)

Biological target: T1, SLC20A1 (PIT1) receptor
Test: flow cytometry, monoFc-tagged gp70 (505-616) on K562 cells (endogenous SLC20A1), PE anti-human Fc secondary

Binder | binding result
B1 | no binding (tested: 10.00 ug/100ul)

Biological target: B1
Test: indirect ELISA, hybridoma supernatant on coated monoFc-tagged gp70 (505-616)

Binder | binding result
B2 | no binding
B3 | no binding
B4 | no binding

Biological target: B11
Test: BLI Octet Red96; antibody on AMC biosensor, 100 nM monoFc-gp70(42-474) analyte

Binder | Kd | koff | kon
B5 | 0.193 nM | 6.31e-05 s⁻¹ | 328000 M⁻¹ s⁻¹
B2 | 0.704 nM | 0.000257 s⁻¹ | 366000 M⁻¹ s⁻¹
B6 | 1.71 nM | 0.00048 s⁻¹ | 281000 M⁻¹ s⁻¹
B3 | 1.69 nM | 0.000607 s⁻¹ | 359000 M⁻¹ s⁻¹
B7 | 1.4 nM | 0.000447 s⁻¹ | 318000 M⁻¹ s⁻¹
B4 | 0.00524 nM | 6e-07 s⁻¹ | 114000 M⁻¹ s⁻¹
B8 | 0.0175 nM | 6.72e-07 s⁻¹ | 38300 M⁻¹ s⁻¹
B9 | 0.0122 nM | 6.29e-07 s⁻¹ | 51500 M⁻¹ s⁻¹

Biological target: T1, SLC20A1 (PIT1) receptor
Test: flow cytometry, monoFc-tagged gp70 protein on K562 cells (endogenous SLC20A1), PE anti-human Fc secondary; CHO as negative cells

Binder | binding result
B10 | binds
B11 | binds
